We go through five molecules from ChEMBL document CHEMBL3526122, “Identification of UDP-glucuronosyltransferases responsible for the glucuronidation of darexaban, an oral factor Xa inhibitor, in human liver and intestine” (Drug Metab Dispos, 2012).

Series [1] is described as follows: Drug level in human intestinal microsomes treated with darexaban at 30 uM after 10 mins by LC-MS/MS analysis in presence of UDPGA. The format is ADME, Intestine, Microsome.
For a further series, the system named is Liver microsome. Briefly: Drug level in human liver microsomes treated with darexaban at 30 uM after 10 mins by LC-MS/MS analysis in presence of UDPGA. The format is ADME.
Substrate in series [2]: COc1ccc(C(=O)Nc2cccc(O)c2NC(=O)c2ccc(N3CCCN(C)CC3)cc2)cc1
In words: Activity of human recombinant UGT1A10 expressed in baculovirus-infected insect cells assessed as enzyme-mediated glucuronidation after 10 mins in presence of UDPGA. The format is ADME.

Substrate in series [3]: COc1ccc(C(=O)Nc2cccc(O)c2NC(=O)c2ccc(N3CCCN(C)CC3)cc2)cc1
In words: Activity of human recombinant UGT1A8 expressed in baculovirus-infected insect cells assessed as enzyme-mediated glucuronidation after 10 mins in presence of UDPGA. The format is ADME.

Substrate in series [4]: COc1ccc(C(=O)Nc2cccc(O)c2NC(=O)c2ccc(N3CCCN(C)CC3)cc2)cc1
Briefly: Activity of human recombinant UGT1A9 expressed in baculovirus-infected insect cells assessed as enzyme-mediated glucuronidation after 5 mins by Michaelis-Menten plot analysis in presence of UDPGA and absence of fatty acid free BSA. The format is ADME.

Substrate in series [5]: COc1ccc(C(=O)Nc2cccc(O)c2NC(=O)c2ccc(N3CCCN(C)CC3)cc2)cc1
Briefly: Activity of human recombinant UGT1A9 expressed in baculovirus-infected insect cells assessed as enzyme-mediated glucuronidation after 5 mins by Michaelis-Menten plot analysis in presence of UDPGA and 0.1% fatty acid free BSA. The format is ADME.

Substrate in series [6]: COc1ccc(C(=O)Nc2cccc(O)c2NC(=O)c2ccc(N3CCCN(C)CC3)cc2)cc1
Briefly: Activity of human recombinant UGT1A9 expressed in baculovirus-infected insect cells assessed as enzyme-mediated glucuronidation after 5 mins by Michaelis-Menten plot analysis in presence of UDPGA. The format is ADME.

Substrate in series [7]: COc1ccc(C(=O)Nc2cccc(O)c2NC(=O)c2ccc(N3CCCN(C)CC3)cc2)cc1
Briefly: Activity of human recombinant UGT1A9 expressed in baculovirus-infected insect cells assessed as enzyme-mediated glucuronidation after 5 mins by Michaelis-Menten plot analysis in presence of UDPGA and 2% fatty acid free BSA. The format is ADME.

Substrate in series [8]: COc1ccc(C(=O)Nc2cccc(O)c2NC(=O)c2ccc(N3CCCN(C)CC3)cc2)cc1
In words: Activity of human recombinant UGT1A9 expressed in baculovirus-infected insect cells assessed as enzyme-mediated glucuronidation after 5 mins by Michaelis-Menten plot analysis in presence of UDPGA and 0.5% fatty acid free BSA. Format: ADME.

Substrate in series [9]: COc1ccc(C(=O)Nc2cccc(O)c2NC(=O)c2ccc(N3CCCN(C)CC3)cc2)cc1
In words: Activity of human recombinant UGT1A7 expressed in baculovirus-infected insect cells assessed as enzyme-mediated glucuronidation after 10 mins by Michaelis-Menten plot analysis in presence of UDPGA. The format is ADME.

Turning to `COc1ccc(C(=O)Nc2cccc(O[C@@H]3O[C@H](C(=O)O)[C@@H](O)[C@H](O)[C@H]3O)c2NC(=O)c2ccc(N3CCCN(C)CC3)cc2)cc1`, the Drug metabolism entry (in [1]; with Liver microsome) was “metabolite_detected” throughout.

B1: UDP-glucuronosyltransferase 1A10 (Homo sapiens) (protein)
chain: MARAGWTSPVPLCVCLLLTCGFAEAGKLLVVPMDGSHWFTMQSVVEKLILRGHEVVVVMPEVSWQLERSLNCTVKTYSTSYTLEDQNREFMVFAHAQWKAQAQSIFSLLMSSSSGFLDLFFSHCRSLFNDRKLVEYLKESSFDAVFLDPFDTCGLIVAKYFSLPSVVFTRGIFCHHLEEGAQCPAPLSYVPNDLLGFSDAMTFKERVWNHIVHLEDHLFCQYLFRNALEIASEILQTPVTAYDLYSHTSIWLLRTDFVLDYPKPVMPNMIFIGGINCHQGKPLPMEFEAYINASGEHGIVVFSLGSMVSEIPEKKAMAIADALGKIPQTVLWRYTGTRPSNLANNTILVKWLPQNDLLGHPMTRAFITHAGSHGVYESICNGVPMVMMPLFGDQMDNAKRMETKGAGVTLNVLEMTSEDLENALKAVINDKSYKENIMRLSSLHKDRPVEPLDLAVFWVEFVMRHKGAPHLRPAAHDLTWYQYHSLDVIGFLLAVVLTVAFITFKCCAYGYRKCLGKKGRVKKAHKSKTH
Take B1: in [2], the Km came out at 34.2 µM and the Vmax is 0.00136 µmol/min.

B2: UDP-glucuronosyltransferase 1A8 (Homo sapiens) (protein)
chain: MARTGWTSPIPLCVSLLLTCGFAEAGKLLVVPMDGSHWFTMQSVVEKLILRGHEVVVVMPEVSWQLGKSLNCTVKTYSTSYTLEDLDREFMDFADAQWKAQVRSLFSLFLSSSNGFFNLFFSHCRSLFNDRKLVEYLKESSFDAVFLDPFDACGLIVAKYFSLPSVVFARGIACHYLEEGAQCPAPLSYVPRILLGFSDAMTFKERVRNHIMHLEEHLFCQYFSKNALEIASEILQTPVTAYDLYSHTSIWLLRTDFVLDYPKPVMPNMIFIGGINCHQGKPLPMEFEAYINASGEHGIVVFSLGSMVSEIPEKKAMAIADALGKIPQTVLWRYTGTRPSNLANNTILVKWLPQNDLLGHPMTRAFITHAGSHGVYESICNGVPMVMMPLFGDQMDNAKRMETKGAGVTLNVLEMTSEDLENALKAVINDKSYKENIMRLSSLHKDRPVEPLDLAVFWVEFVMRHKGAPHLRPAAHDLTWYQYHSLDVIGFLLAVVLTVAFITFKCCAYGYRKCLGKKGRVKKAHKSKTH
On to B2, for which, in series [3], the Km came out at 11.8 µM and the Vmax stood at 0.000608 µmol/min.

B3: UDP-glucuronosyltransferase 1A9 (Homo sapiens) (protein)
chain: MACTGWTSPLPLCVCLLLTCGFAEAGKLLVVPMDGSHWFTMRSVVEKLILRGHEVVVVMPEVSWQLGRSLNCTVKTYSTSYTLEDLDREFKAFAHAQWKAQVRSIYSLLMGSYNDIFDLFFSNCRSLFKDKKLVEYLKESSFDAVFLDPFDNCGLIVAKYFSLPSVVFARGILCHYLEEGAQCPAPLSYVPRILLGFSDAMTFKERVRNHIMHLEEHLLCHRFFKNALEIASEILQTPVTEYDLYSHTSIWLLRTDFVLDYPKPVMPNMIFIGGINCHQGKPLPMEFEAYINASGEHGIVVFSLGSMVSEIPEKKAMAIADALGKIPQTVLWRYTGTRPSNLANNTILVKWLPQNDLLGHPMTRAFITHAGSHGVYESICNGVPMVMMPLFGDQMDNAKRMETKGAGVTLNVLEMTSEDLENALKAVINDKSYKENIMRLSSLHKDRPVEPLDLAVFWVEFVMRHKGAPHLRPAAHDLTWYQYHSLDVIGFLLAVVLTVAFITFKCCAYGYRKCLGKKGRVKKAHKSKTH
Turning to B3, the Km in series [4] was determined as 35.5 µM; in [5] it was 22.4 µM; in series [6], 58.2 µM; in series [7], 18.3 µM; in series [8], 22.7 µM.

B4: UDP-glucuronosyltransferase 1A7 (Homo sapiens) (protein)
chain: MARAGWTGLLPLYVCLLLTCGFAKAGKLLVVPMDGSHWFTMQSVVEKLILRGHEVVVVMPEVSWQLGRSLNCTVKTYSTSYTLEDQDREFMVFADARWTAPLRSAFSLLTSSSNGIFDLFFSNCRSLFNDRKLVEYLKESCFDAVFLDPFDACGLIVAKYFSLPSVVFARGIFCHYLEEGAQCPAPLSYVPRLLLGFSDAMTFKERVWNHIMHLEEHLFCPYFFKNVLEIASEILQTPVTAYDLYSHTSIWLLRTDFVLEYPKPVMPNMIFIGGINCHQGKPVPMEFEAYINASGEHGIVVFSLGSMVSEIPEKKAMAIADALGKIPQTVLWRYTGTRPSNLANNTILVKWLPQNDLLGHPMTRAFITHAGSHGVYESICNGVPMVMMPLFGDQMDNAKRMETKGAGVTLNVLEMTSEDLENALKAVINDKSYKENIMRLSSLHKDRPVEPLDLAVFWVEFVMRHKGAPHLRPAAHDLTWYQYHSLDVIGFLLAVVLTVAFITFKCCAYGYRKCLGKKGRVKKAHKSKTH
Consider B4, for which, in [9], the Km came out at 59.1 µM and the maximal velocity (Vmax) came out at 0.000725 µmol/min.
